Measured values as given in US20250136694A1 (HARBOUR BIOMED SHANGHAI, published 2025).

T1: mouse B7-H4 on the cell surface (mouse, UniProt Q7TSP5 25-257)
T1 construct: whole, on cells; also called m B7-H4; CHO-K1/mB7-H4
T1 sequence (looked up): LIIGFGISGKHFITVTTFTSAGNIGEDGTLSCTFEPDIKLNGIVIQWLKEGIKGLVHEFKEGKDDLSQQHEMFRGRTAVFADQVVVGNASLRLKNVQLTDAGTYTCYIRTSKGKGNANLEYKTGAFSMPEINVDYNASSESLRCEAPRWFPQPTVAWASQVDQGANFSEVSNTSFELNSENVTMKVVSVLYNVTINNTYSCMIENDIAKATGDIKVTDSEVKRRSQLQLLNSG

T2: human B7-H4 on the cell surface (human, UniProt Q7Z7D3 25-282)
T2 construct: whole, on cells; also called hu B7-H4; CHO-K1/huB7-H4
T2 sequence (looked up): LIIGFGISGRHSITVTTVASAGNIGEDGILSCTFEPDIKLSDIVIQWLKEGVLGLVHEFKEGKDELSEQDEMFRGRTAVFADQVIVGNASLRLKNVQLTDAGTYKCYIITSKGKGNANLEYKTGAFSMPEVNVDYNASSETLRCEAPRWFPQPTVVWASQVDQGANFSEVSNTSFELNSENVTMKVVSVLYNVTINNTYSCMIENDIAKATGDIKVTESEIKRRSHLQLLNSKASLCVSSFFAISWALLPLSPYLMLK

T3: cynomolgus monkey B7-H4 on the cell surface (cynomolgus monkey, UniProt A0A2K5U6P5 25-282)
T3 construct: whole, on cells; also called cyno B7-H4; CHO-K1/cynoB7-H4
T3 sequence: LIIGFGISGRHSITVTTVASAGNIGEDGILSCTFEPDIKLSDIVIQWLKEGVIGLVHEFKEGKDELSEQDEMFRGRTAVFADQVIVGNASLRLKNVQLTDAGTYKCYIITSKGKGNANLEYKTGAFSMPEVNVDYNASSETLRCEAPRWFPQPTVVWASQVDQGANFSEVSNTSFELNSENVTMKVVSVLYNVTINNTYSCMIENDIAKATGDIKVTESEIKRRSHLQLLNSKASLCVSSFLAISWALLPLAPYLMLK

T4: human B7-H4 (protein in solution, BLI) (human, UniProt Q7Z7D3 25-258, limits assumed)
T4 sequence (looked up): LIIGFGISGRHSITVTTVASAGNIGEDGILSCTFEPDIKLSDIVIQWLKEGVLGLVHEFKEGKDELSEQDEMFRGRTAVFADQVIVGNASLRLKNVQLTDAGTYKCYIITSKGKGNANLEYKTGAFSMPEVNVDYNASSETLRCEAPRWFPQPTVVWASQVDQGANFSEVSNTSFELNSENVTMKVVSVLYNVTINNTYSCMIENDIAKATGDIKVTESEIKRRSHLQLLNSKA


Experiments:
[1] = target: T1, mouse B7-H4 on the cell surface; test: FACS, CHO-K1/m B7-H4 cells
[2] = target: T2, human B7-H4 on the cell surface; test: FACS, MDA-MB-468 cells
Method: (§1) Antibody binding experiments at the cellular level were performed using tumor cells endogenously expressing B7-H4 or primary T cells expressing CD3. MDA-MB-468 cells or human T cells were resuspended in PBS containing 2% BSA. The cell density was adjusted to 1×10⁶ cells/mL. The cells were seeded in a 96-well V-bottom plate (Corning, #3894) at 100 μL/well, followed by the addition of test antibodies 3-fold serially diluted at a concentration that was 2 times the final concentration, each at 100 μL/well. The cells were incubated away from light at 4° C. for 2 h. Then, the cells in each well were rinsed twice with 100 μL of pre-cooled PBS containing 2% BSA and centrifuged at 500 g at 4° C. for 5 min, and then the supernatant was discarded. […] The cells in each well were rinsed twice with 100 μL of pre-cooled PBS containing 2% BSA and centrifuged at 500 g at 4° C. for 5 min, and then the supernatant was discarded. Finally, the cells in each well were resuspended with 200 μL of pre-cooled PBS containing 2% BSA, and the fluorescence signal values were read using an ACEA Novocyte3000 flow cytometer.
The results are shown in Tables 6-1, 6-2, and 6-3 and FIGS. 5A-5F.

[3] = target: T2, human B7-H4 on the cell surface; test: FACS, MDA-MB-468 cells; remark: listed apart in the source
Method: as §1

[4] = target: T2, human B7-H4 on the cell surface; test: FACS, CHO-K1/hu B7-H4 cells
Method: (§2) This example is intended to investigate the in vitro binding activity of the CD3 bispecific antibodies of B7-H4 for human, cynomolgus monkey, and mouse B7-H4. Antibody binding experiments at the cellular level were conducted using a CHO-K1 cell strain overexpressing human B7-H4 (CHO-K1/huB7-H4, Harbour BioMed), a CHO-K1 cell strain overexpressing cynomolgus monkey B7-H4 (CHO-K1/cynoB7-H4, Harbour BioMed), and a CHO-K1 cell strain overexpressing mouse B7-H4 (CHO-K1/mB7-H4, Harbour BioMed). Briefly, cells were digested and resuspended in PBS containing 2% FBS, and the cell density was adjusted to 1×10⁶ cells/mL. The cells were seeded in a 96-well V-bottom plate (Corning, Cat #3894) at 100 μL/well, followed by the addition of test antibodies 3-fold serially diluted at a concentration that was 2 times the final concentration, each at 100 μL/well. The cells were incubated away from light at 4° C. for 2 h. Then, the cells in each well were rinsed twice with 100 μL of pre-cooled PBS and centrifuged at 500 g at 4° C. for 5 min, and then the supernatant was discarded. […] The cells in each well were then rinsed twice with 100 μL of pre-cooled PBS and centrifuged at 500 g at 4° C. for 5 min, and then the supernatant was discarded. Finally, the cells in each well were resuspended in 200 μL of pre-cooled PBS, and the fluorescence signal values were read using ACEA Novocyte3000.

[5] = target: T3, cynomolgus monkey B7-H4 on the cell …; test: FACS, CHO-K1/cyno B7-H4 cells
Method: as §2

[6] = target: T4, human B7-H4 (protein in solution, BLI); test: BLI (Octet), antibody captured on AHC sensor, antigen in solution
Method: The binding kinetics between the antigen and the antibody was analyzed by the biolayer interferometry (BLI) technique using an Octet Red 96e molecular interaction analyzer (Fortebio).
When the affinity of the antigen for the antibody was determined, the rotation speed of the sensor was set at 1000 rpm/min. […] Finally, the AHC sensor was immersed in a 10 mM glycine-hydrochloric acid solution at pH 1.5 for regeneration to elute the proteins bound to the sensor.
When data analysis was performed using Octet Data Analysis software (Fortebio, version 11.0), 0 nM was taken as a reference well, and reference subtraction was performed; the “1:1 Global fitting” method was selected to fit the data, and the kinetics parameters of the binding of antigens to antigen-binding proteins were calculated, with kₒₙ(1/Ms) values, kdis(1/s) values, and KD(M) values obtained (see Table 3 and FIG. 2).

[7] = target: T1, mouse B7-H4 on the cell surface; test: FACS, CHO-K1/m B7-H4 cells; remark: listed apart in the source
Method: as §2

| Binder | binding result [1] | EC50 [2] | EC50 [3] | EC50 [4] | EC50 [5] | Kd [6] | koff [6] | kon [6] | EC50 [7] |
| --- | --- | --- | --- | --- | --- | --- | --- | --- | --- |
| PR006391 (bispecific antibody, human IgG1, lambda, also called B7-H4xCD3 bispecific antibody; PR003886 Fab + bivalent PR007440) light: QAVVTQEPSLTVSPGGTVTLTCRSSTGAVTTSNYANWVQQKPGQAPRGLIGGTNKRAPWTPARFSGSLLGDKAALTLLGAQPEDEAEYFCALWYSNLWVFGGGTKLTVLGQPKAAPSVTLFPPSSEELQANKATLVCLISDFYPGAVTVAWKADSSPVKAGVETTTPSKQSNNKYAASSYLSLTPEQWKSHRSYSCQVTHEGSTVEKTVAPTECS heavy: EVQLVESGGGLVQPGGSLKLSCAASGFTFSTYAMNWVRQASGKGLEWVGRIRSKYNNYATYYADSVKDRFTISRDDSKNTAYLQMNSLKTEDTAVYYCTRHGNFGNSYVSWFAYWGQGTLVTVSSASTKGPSVFPLAPSSKSTSGGTAALGCLVKDYFPEPVTVSWNSGALTSGVHTFPAVLQSSGLYSLSSVVTVPSSSLGTQTYICNVNHKPSNTKVDKKVEPKSCDKTHTCPPCPAPEAAGAPSVFLFPPKPKDTLMISRTPEVTCVVVDVSHEDPEVKFNWYVDGVEVHNAKTKPREEQYNSTYRVVSVLTVLHQDWLNGKEYKCKVSNKALPAPIEKTISKAKGQPREPQVYTLPPCREEMTKNQVSLWCLVKGFYPSDIAVEWESNGQPENNYKTTPPVLDSDGSFFLYSKLTVDKSRWQQGNVFSCSVMHEALHNHYTQKSLSLSPGK EVQLVESGGGLVQPGGSLRLSCAASGFAFSNYWMHWARQVPGKGRVWISRISGDSRSTSYADSVKGRFTISRDNAKNMVYLQMNNLRAEDTAVYYCARDRFGDDYYYGMNVWGQGTTVTVSSGGGGSGGGGSGGGGSEVQLVESGGGLVQPGGSLRLSCAASGFAFSNYWMHWARQVPGKGRVWISRISGDSRSTSYADSVKGRFTISRDNAKNMVYLQMNNLRAEDTAVYYCARDRFGDDYYYGMNVWGQGTTVTVSSASEPKSSDKTHTCPPCPAPEAAGAPSVFLFPPKPKDTLMISRTPEVTCVVVDVSHEDPEVKFNWYVDGVEVHNAKTKPREEQYNSTYRVVSVLTVLHQDWLNGKEYKCKVSNKALPAPIEKTISKAKGQPREPQVCTLPPSREEMTKNQVSLSCAVKGFYPSDIAVEWESNGQPENNYKTTPPVLDSDGSFFLVSKLTVDKSRWQQGNVFSCSVMHEALHNHYTQKSLSLSPGK | no binding | 19.1 nM | 15.8 nM | 3.54 nM | 3.79 nM | 3.75 nM | 0.000339 s⁻¹ | 90400 M⁻¹ s⁻¹ | – |
| PR005885 (bispecific antibody, human IgG1, lambda, Chain-3 is the VL-linker-VH scFv of anti-B7-H4 antibody PR003366 fused to hinge-CH2-CH3 (hole); also called B7-H4xCD3 bispecific antibody; 1+1 Fab-Fc-scFv) light: QAVVTQEPSLTVSPGGTVTLTCRSSTGAVTTSNYANWVQQKPGQAPRGLIGGTNKRAPWTPARFSGSLLGDKAALTLLGAQPEDEAEYFCALWYSNLWVFGGGTKLTVLGQPKAAPSVTLFPPSSEELQANKATLVCLISDFYPGAVTVAWKADSSPVKAGVETTTPSKQSNNKYAASSYLSLTPEQWKSHRSYSCQVTHEGSTVEKTVAPTECS heavy: EVQLVESGGGLVQPGGSLKLSCAASGFTFSTYAMNWVRQASGKGLEWVGRIRSKYNNYATYYADSVKDRFTISRDDSKNTAYLQMNSLKTEDTAVYYCTRHGNFGNSYVSWFAYWGQGTLVTVSSASTKGPSVFPLAPSSKSTSGGTAALGCLVKDYFPEPVTVSWNSGALTSGVHTFPAVLQSSGLYSLSSVVTVPSSSLGTQTYICNVNHKPSNTKVDKKVEPKSCDKTHTCPPCPAPEAAGAPSVFLFPPKPKDTLMISRTPEVTCVVVDVSHEDPEVKFNWYVDGVEVHNAKTKPREEQYNSTYRVVSVLTVLHQDWLNGKEYKCKVSNKALPAPIEKTISKAKGQPREPQVYTLPPCREEMTKNQVSLWCLVKGFYPSDIAVEWESNGQPENNYKTTPPVLDSDGSFFLYSKLTVDKSRWQQGNVFSCSVMHEALHNHYTQKSLSLSPGK scFv: EIVMTQSPASLSVSPGERATLSCRASQSVSSNLAWYQQKPGQAPRLLIYGASTRATGIPARVSGGGSGTEFTLTISSLQSEDFAVYYCQQYKNWPFTFGPGTKLEIKGGGGSGGGGSGGGGSGGGGSQVQLVQSGAEVKKPGSSMRVSCKASEDTFSSYAISWVRQAPGQGLEWMGGTAPIFGTTNYAQKFQGRVTITADKSTSTAYMELSSLRSEDTAVYYCARGGPYFDYWGQGTLVTVSSASEPKSSDKTHTCPPCPAPEAAGAPSVFLFPPKPKDTLMISRTPEVTCVVVDVSHEDPEVKFNWYVDGVEVHNAKTKPREEQYNSTYRVVSVLTVLHQDWLNGKEYKCKVSNKALPAPIEKTISKAKGQPREPQVCTLPPSREEMTKNQVSLSCAVKGFYPSDIAVEWESNGQPENNYKTTPPVLDSDGSFFLVSKLTVDKSRWQQGNVFSCSVMHEALHNHYTQKSLSLSPGK | – | – | 92.6 nM | 4.79 nM | 5.92 nM | – | – | – | 37 nM |
